The values below come from paper PMC6009666, “DNA-mediated dimerization on a compact sequence signature controls enhancer engagement and regulation by FOXA1”.

In data set [1] the target is T1, FOXA1 DBD (Homo sapiens, UniProt P55317 158-272).
T1 sequence: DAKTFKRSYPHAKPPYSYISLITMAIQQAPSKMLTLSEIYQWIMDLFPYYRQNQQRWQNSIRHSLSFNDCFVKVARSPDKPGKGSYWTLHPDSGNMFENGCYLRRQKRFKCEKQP
The experiment in a line: EMSA. As to conditions: monomer binding not affected; EMSA: 20 mM Tris-HCl pH 8.0, 100 mM KCl, 50 uM ZnCl2, 0.1 mg/ml BSA, 10% glycerol, 0.1% Igepal CA630, 2 mM beta-mercaptoethanol, 1 h at 4 C; 1-100 nM dsDNA; 12%.

Data set [2] concerns the target T1, FOXA1 DBD. The data set can be described thus: EMSA; 1 nM DNA; monomer; n=3; EMSA: 20 mM Tris-HCl pH 8.0, 100 mM KCl, 50 uM ZnCl2, 0.1 mg/ml BSA, 10% glycerol, 0.1% Igepal CA630, 2 mM beta-mercaptoethanol, 1 h at 4 C; 1-100 nM dsDNA; 12% native PAGE (6% for full length). As to conditions: protein: recombinant; tags: His-tag implied (pNic28-Bsa4, Ni-NTA); label: 5' Cy5 forward strand.

Regarding rs2941742 minor allele, the binding signal (fold reduction of omega vs major allele) with FOXA1 DBD [1] was 20.

B1: FOXA1 monomer element (dsDNA)
DNA 1: CCGCCGCCGTGTTTACTTTGCCGCCGCC
DNA 2: GGCGGCGGCAAAGTAAACACGGCGGCGG
Turning to B1, the dissociation constant Kd with FOXA1 DBD [2] was found to be 2.4 ± 1.06 nM.
